Experimental data from paper doi:10.1101/491043 (bioRxiv, 2018).
Values joined by “and” are separate entries in the source; they are usually repeats but may differ in a detail not shown here. Equal values may be shown once.

Molecular target: the molecule itself

B1: M. tuberculosis ClpX (enzyme)
chain: not shown
  stoichiometry N: 6 and 2
